In publication PMC6972895:

Target: Chaperonin-containing TCP-1 (CCT) oligomeric complex (human (endogenous in T47D)) (UniProt P17987)
Test: native gel or EMSA; native PAGE of T47D CCT2-FLAG cell lysates; blotted for FLAG, CCT2 and CCT3; oligomeric complex against free monomer

- percent of the total FLAG signal as free monomer: 24%
B1: CCT2-FLAG (FLAG-tagged CCT2, FLAG tag on the C-terminal of CCT2) (natural protein)
chain: MASLSLAPVNIFKAGADEERAETARLTSFIGAIAIGDLVKSTLGPKGMDKILLSSGRDASLMVTNDGATILKNIGVDNPAAKVLVDMSRVQDDEVGDGTTSVTVLAAELLREAESLIAKKIHPQTIIAGWREATKAAREALLSSAVDHGSDEVKFRQDLMNIAGTTLSSKLLTHHKDHFTKLAVEAVLRLKGSGNLEAIHIIKKLGGSLADSYLDEGFLLDKKIGVNQPKRIENAKILIANTGMDTDKIKIFGSRVRVDSTAKVAEIEHAEKEKMKEKVERILKHGINCFINRQLIYNYPEQLFGAAGVMAIEHADFAGVERLALVTGGEIASTFDHPELVKLGSCKLIEEVMIGEDKLIHFSGVALGEACTIVLRGATQQILDEAERSLHDALCVLAQTVKDSRTVYGGGCSEMLMAHAVTQLANRTPGKEAVAMESYAKALRMLPTIIADNAGYDSADLVAQLRAAHSEGNTTAGLDMREGTIGDMAILGITESFQVKRQVLLSAAEAAEVILRVDNIIKAAPRKRVPDHHPC
